The target in the experiment is fused protein of GAL4 DNA binding domain and mouse ATF4 leucine zipper domain (amino acids 298 to 349 in the … (mouse, UniProt P04386)). Put plainly: yeast two-hybrid, colony formation on histidine-, tryptophan-, leucine- medium. As to the method:
The site to which ZIP-kinase and ATF4 bind was determined using yeast two-hybrid system. First, variants of mouse ZIP-kinase were prepared: 1) amino acids 278 to 448 of ZIP-kinase (ZIP-kinase 278–448); 2) leucine zipper domain of ZIP-kinase (amino acids 398 to 448) (ZIP-kinase LZ); and 3) a variant of ZIP-kinase in which valine and leucine in the leucine zipper domain were substituted with alanine (ZIP-kinase LA). Each of these variants was designed to produce a chimeric protein with GAL4 trans activating domain, and DNA coding for said chimeric protein was inserted into pACT2 and introduced into yeast strain Y190 together with pAS2-1-ATF4 LZ. The strain was cultivated on histidine+, tryptophan–, leucine–, and histidine–, tryptophan–, leucine– selective media.

B1: ZIP-kinase LA (variant of mouse ZIP-kinase in which valine and leucine in the leucine zipper domain were substituted with alanine) as chimeric protein with … (enzyme)
chain: MSTFRQEDVEDHYEMGEELGSGQFAIVRKCQQKGTGMEYAAKFIKKRRLPSSRRGVSREEIEREVSILREIRHPNIITLHDVFENKTDVVLILELVSGGELFDFLAEKESLTEDEATQFLKQILDGVHYLHSKRIAHFDLKPENIMLLDKHAASPRIKLIDFGIAHRIEAGSEFKNIFGTPEFVAPEIVNYEPLGLEADMWSIGVITYILLSGASPFLGETKQETLTNISAVNYDFDEEYFSSTSELAKDFIRRLLVKDPKRRMTIAQSLEHSWIKVRRREDGARKPERRRLRAARLREYSLKSHSSMPRNTSYASFERFSRVLEDVAAAEQGLRELQRGRRQCRERVCALRAAAEQREARCRDGSAGLGRDLRRLRTELGRTEALRTRAQEEARAALLGAGGLKRRLCRLENRYDALAAQAAAEVQFARDLVRAAEQERLQAECGVR
For the molecule B1, the binding result is reported as “no binding”.
